Molecular target: actin filaments (F-actin, rabbit skeletal muscle) (rabbit, UniProt P68135 1-377)
Assay: co-sedimentation

B1: GFP–TipAct (other)
chain: DERDRVQKKTFTKWVNKHLMKVRKHINDLYEDLRDGHNLISLLEVLSGIKLPREKGRMRFHRLQNVQIALDFLKQRQVKLVNIRNDDITDGNPKLTLGLIWTIILHFQISDIYISGESGDMSAKEKLLLWTQKVTAGYTGIKCTNFSSCWSDGKMFNALIHRYRPDLVDMERVQIQSNRENLEQAFEVAERLGVTRLLDAEDVDVPSPDEKSVITYVSSIYDAFPKVPEGGEGEMANRLAGLENSLESEKVSREQLIKQKDQLNSLLASLESEGAEREKRLRELEAKLDETLKNLELEKLARMELEARLAKTEKDRAILELKLAEAIDEKSKLEESSAAGGQGNSRRGLNKPSKIPTMSKKTTTASPRTPGPKR
Q: B1 was tested. Which Kd did it give?
A: The Kd was ~5 µM.

Source: paper PMC4365169 (Nature Communications, 2014)
